# In PMC5647378, “Structural and Mechanistic Analysis of Drosophila melanogaster Agmatine N-Acetyltransferase, an Enzyme that Catalyzes the Formation of N-Acetylagmatine” (Scientific Reports, 2017):
# Positions count from the first letter of the chain named. Names may count otherwise. Where two headings read alike, the source gives them in different places.
# B1: Drosophila melanogaster AgmNAT (CG15766), wild-type (Drosophila melanogaster) (protein)
# chain: MAKPIADDIVVRQVDVGETEQLMTFLLAHYYPEEPLTAGTHPPEPEAADKEFLLSNVPFGTCFVALHEGRIVAAVVAGPKDSHEPEHMAEEARKYAGGKWGSILHLLSAVETATDVCRRFSVPSCLHVHALGVDPQLRGRNLGGRLMETVAQRGRDLGHQLVSVDCTSVYSARLVQRLGYQLINTLRYVDHLDASGQQVIRPPPPHESVQTFVLHL
# B2: AgmNAT E34A mutant (Drosophila melanogaster; E34A) (protein)
# chain: B1 chain with E34A
# B3: AgmNAT P35A mutant (Drosophila melanogaster; P35A) (protein)
# chain: B1 chain with P35A
# B4: AgmNAT S171A mutant (Drosophila melanogaster; S171A) (protein)
# chain: B1 chain with S171A
# B5: AgmNAT H206A mutant (Drosophila melanogaster; H206A) (protein)
# chain: B1 chain with H206A
# Experiments:
# [1] = target: T1, Drosophila melanogaster AgmNAT (CG15766), wild-type (Drosophila melanogaster, UniProt Q9W469); assay: AgmNAT dead-end and product inhibition analysis; assay type: biochemical
# Method: Initial velocities were determined by varying the concentration of one substrate, while holding the other substrate at a fixed concentration. […] The resulting initial velocity data was fit to equation 3 for an ordered Bi-Bi mechanism and equation 4 for a ping pong mechanism using IGOR Pro 6.34 A, where vo is the initial velocity, Vmax is the maximal velocity, Kia is the dissociation constant for substrate A, Kb is the Michaelis constant for substrate B, Ka is the Michaelis constant for substrate A, [A] is the concentration of substrate A, and [B] is the concentration of substrate B.3 vo=Vmax[A][B]/KiaKb+Ka[B]+Kb[A]+[A][B] 4 vo=Vmax[A][B]/Ka[B]+Kb[A]+[A][B]
# Inhibition experiments by either substrate analogs or N-acetylagamatine were used to discriminate between an ordered, random sequential, or ping pong kinetic mechanism. […] Initial velocity patterns were generated by varying the concentration of one substrate, holding the other substrate concentration at its apparent Km, and changing the concentration of inhibitor for each data set in triplicate. The resulting data was fit to equations 5–7, for competitive, noncompetitive, and uncompetitive inhibition respectively using SigmaPlot 12.0. For […], vo is the initial velocity, Vmax,app is the apparent maximal velocity, Km,app is the apparent Michaelis constant, [S] is the substrate concentration, [I] is the inhibitor concentration, and Ki is the inhibition constant.5 vo=Vmax,app[S]/Km,app(1+[I]/Ki)+[S] 6 vo=Vmax,app[S]/Km,app(1+[I]/Ki)+[S](1+[I]/Ki) 7 vo=Vmax,app[S]/Km,app+[S](1+[I]/Ki)
# [2] = target: T1, Drosophila melanogaster AgmNAT (CG15766), wild-type; assay: AgmNAT steady-state kinetics, coenzyme A release with Ellman's reagent (DTNB); assay type: biochemical; conditions: for kcat,app / Km: 300 mM Tris-HCl pH 8.5, 150 µM DTNB; for acceptance as amine substrate: amine substrate screen with acetyl-CoA
# Method: Steady-state kinetic constants for AgmNAT were determined by measuring the rate of coenzyme A release using Ellman’s reagent (DTNB) at 412 nm (molar absorptivity = 13,600 M^−1 cm^−1)[15]–[17]. […] Initial velocities were measured using a Cary 300 Bio UV-Visible spectrophotometer at 22 °C. Acyl-CoA kinetic constants were evaluated by holding the concentration of agmatine at a constant saturating concentration (5 mM). […] The apparent kinetic constants were determined by fitting the resulting data to equation 1 using SigmaPlot 12.0, where vo is the initial velocity, Vmax,app is the apparent maximal velocity, [S] is the substrate concentration, and Km,app is the apparent Michaelis constant. Each assay was performed in triplicate and the uncertainty for the kcat,app and (kcat/Km)app values were calculated using equation 2, where σ is the standard error.1 vo=Vmax,app[S]/Km,app+[S] 2 σ(x/y)=x/y(σx/x)^2+(σy/y)^2
# [3] = substrate: N=C(N)NCCCCN; assay: as above; assay type: biochemical, Drosophila melanogaster; conditions: other: amine varied, 500 μM acetyl-CoA, 300 mM Tris-HCl pH 8.5, 150 µM DTNB, 22.0 °C
# [4] = substrate: NCCCCCN; assay: as above; assay type: biochemical, Drosophila melanogaster; conditions: other: amine varied, 500 μM acetyl-CoA, 300 mM Tris-HCl pH 8.5, 150 µM DTNB, 22.0 °C
# [5] = substrate: NCCCCNCCCN; assay: as above; assay type: biochemical, Drosophila melanogaster; conditions: other: amine varied, 500 μM acetyl-CoA, 300 mM Tris-HCl pH 8.5, 150 µM DTNB, 22.0 °C
# [6] = substrate: CC(=O)SCCNC(=O)CCNC(=O)[C@H](O)C(C)(C)COP(=O)(O)OP(=O)(O)OC[C@H]1O[C@@H](n2cnc3c(N)ncnc32)[C@H](O)[C@@H]1OP(=O)(O)O; assay: Steady-state kinetics of AgmNAT site-directed mutant E34A; assay type: biochemical, Drosophila melanogaster; conditions: other: E34A, acetyl-CoA varied, saturating agmatine, pH 8.5
# Excerpt: (§1) Following the amplification of the AgmNAT site-directed mutant, the sub-cloning, expression, and purification procedures are the same as discussed for the wild-type enzyme.
# [7] = substrate: N=C(N)NCCCCN; assay: as above; assay type: biochemical, Drosophila melanogaster; conditions: other: E34A, agmatine varied, saturating acetyl-CoA, pH 8.5
# Excerpt: as §1
# [8] = substrate: CC(=O)SCCNC(=O)CCNC(=O)[C@H](O)C(C)(C)COP(=O)(O)OP(=O)(O)OC[C@H]1O[C@@H](n2cnc3c(N)ncnc32)[C@H](O)[C@@H]1OP(=O)(O)O; assay: Steady-state kinetics of AgmNAT site-directed mutant P35A; assay type: biochemical, Drosophila melanogaster; conditions: other: P35A, acetyl-CoA varied, saturating agmatine, pH 8.5
# Excerpt: as §1
# [9] = substrate: N=C(N)NCCCCN; assay: as above; assay type: biochemical, Drosophila melanogaster; conditions: other: P35A, agmatine varied, saturating acetyl-CoA, pH 8.5
# Excerpt: as §1
# [10] = substrate: CC(=O)SCCNC(=O)CCNC(=O)[C@H](O)C(C)(C)COP(=O)(O)OP(=O)(O)OC[C@H]1O[C@@H](n2cnc3c(N)ncnc32)[C@H](O)[C@@H]1OP(=O)(O)O; assay: Steady-state kinetics of AgmNAT site-directed mutant S171A; assay type: biochemical, Drosophila melanogaster; conditions: other: S171A, acetyl-CoA varied, saturating agmatine, pH 8.5
# Excerpt: as §1
# [11] = substrate: N=C(N)NCCCCN; assay: as above; assay type: biochemical, Drosophila melanogaster; conditions: other: S171A, agmatine varied, saturating acetyl-CoA, pH 8.5
# Excerpt: as §1
# [12] = substrate: CC(=O)SCCNC(=O)CCNC(=O)[C@H](O)C(C)(C)COP(=O)(O)OP(=O)(O)OC[C@H]1O[C@@H](n2cnc3c(N)ncnc32)[C@H](O)[C@@H]1OP(=O)(O)O; assay: Steady-state kinetics of AgmNAT site-directed mutant H206A; assay type: biochemical, Drosophila melanogaster; conditions: other: H206A, acetyl-CoA varied, saturating agmatine, pH 8.5
# Excerpt: as §1
# [13] = substrate: N=C(N)NCCCCN; assay: as above; assay type: biochemical, Drosophila melanogaster; conditions: other: H206A, agmatine varied, saturating acetyl-CoA, pH 8.5
# Excerpt: as §1
# [14] = varied substrate agmatine, constant acetyl-CoA (0.1 mM; 104 µM), read-out: Ki,s
# [15] = acyl-CoA varied, 5 mM agmatine, read-out: Km,app
# [16] = amine varied, 500 μM acetyl-CoA
# [17] = amine varied, 500 μM acetyl-CoA, read-out: Km, app
molecule,measurement,setting,value
NC(N)=NCCCCN=C(N)N [Arcaine],Ki,"[1]; varied substrate acetyl-CoA, constant agmatine (0.3 mM), read-out: Ki,i",34 ± 1 µM
same,Ki,[1]; [14],28 ± 1 µM
same,type of inhibition plot (in words),[1]; versus acetyl-CoA,uncompetitive
same,type of inhibition plot (in words),[1]; versus agmatine,competitive
CCCC(=O)SCCNC(=O)CCNC(=O)[C@H](O)C(C)(C)COP(=O)(O)OP(=O)(O)OC[C@H]1O[C@@H](n2cnc3c(N)ncnc32)[C@H](O)[C@@H]1OP(=O)(O)O [Butyryl-CoA],"kcat,app","[2]; acyl-CoA varied, 5 mM agmatine",3.3 ± 0.1 s⁻¹
same,Km,[2]; [15],40 µM
NCCCCCN [Cadaverine],"(kcat/Km)app,agmatine/(kcat/Km)app,polyamine ratio",[2]; acetyl-CoA as co-substrate,1900
CCCCCCCCCC(=O)SCCNC(=O)CCNC(=O)[C@H](O)C(C)(C)COP(=O)(O)OP(=O)(O)OC[C@H]1O[C@@H](n2cnc3c(N)ncnc32)[C@H](O)[C@@H]1OP(=O)(O)O [Decanoyl-CoA],"kcat,app","[2]; acyl-CoA varied, 5 mM agmatine",0.16 ± 0.01 s⁻¹
same,Km,[2]; [15],70 µM
same,"decrease in kcat,app from acetyl-CoA to decanoyl-CoA",[2]; agmatine as saturating amine substrate,~ 150 fold
CCCCCC(=O)SCCNC(=O)CCNC(=O)C(O)C(C)(C)COP(=O)(O)OP(=O)(O)OC[C@H]1O[C@@H](n2cnc3c(N)ncnc32)[C@H](O)[C@@H]1OP(=O)(O)O (some centres unmarked) [Hexanoyl-CoA],"kcat,app","[2]; acyl-CoA varied, 5 mM agmatine",1.1 ± 0.04 s⁻¹
same,Km,[2]; [15],110 µM
CC(=O)NCCCNCCCCN [N ^1-acetylspermidine],acceptance as amine substrate,[2],not AgmNAT substrates
CC(=O)NCCCCNCCCN [N ^8-acetylspermidine],"difference in Km,app relative to spermidine",[2]; acetyl-CoA as co-substrate,~ 2 fold
same,"increase in kcat,app compared to spermidine",[2]; acetyl-CoA as co-substrate,~ 25 fold
same,"kcat,app",[2]; [16],32 ± 2 s⁻¹
same,Km,[2]; [17],9100 ± 1000 µM
CC(=O)NCCCCN [N-acetylputrescine],acceptance as amine substrate,[2],not AgmNAT substrates
CCCCCCCC(=O)SCCNC(=O)CCNC(=O)[C@H](O)C(C)(C)COP(=O)(O)OP(=O)(O)OC[C@H]1O[C@@H](n2cnc3c(N)ncnc32)[C@H](O)[C@@H]1OP(=O)(O)O [Octanoyl-CoA],"kcat,app","[2]; acyl-CoA varied, 5 mM agmatine",0.61 ± 0.02 s⁻¹
same,Km,[2]; [15],140 µM
CCCCCCCC/C=C\CCCCCCCC(=O)SCCNC(=O)CCNC(=O)[C@H](O)C(C)(C)COP(=O)(O)OP(=O)(O)OC[C@H]1O[C@@H](n2cnc3c(N)ncnc32)[C@H](O)[C@@H]1OP(=O)(O)O [Oleoyl-CoA],acceptance as acyl-CoA substrate,"[2]; agmatine as amine substrate, oleoyl-CoA at 500 μM",not a substrate
same,Ki,"[1]; varied substrate acetyl-CoA, constant agmatine (0.3 mM), read-out: Ki,s",19 ± 1 µM
same,Ki,"[1]; varied substrate agmatine, constant acetyl-CoA (0.1 mM; 104 µM), read-out: Ki,i",67 ± 4 µM
same,Ki,[1]; [14],67 ± 4 µM
same,type of inhibition plot (in words),[1]; versus acetyl-CoA,competitive
same,type of inhibition plot (in words),[1]; versus agmatine,noncompetitive
NCCCCN [Putrescine],"kcat,app",[2]; [16],7.7 ± 0.3 s⁻¹
same,Km,[2]; [17],51000 ± 3000 µM
NCCCNCCCCNCCCN [Spermine],"(kcat/Km)app,agmatine/(kcat/Km)app,polyamine ratio",[2]; acetyl-CoA as co-substrate,15
same,"kcat,app",[2]; [16],77 ± 7 s⁻¹
same,Km,[2]; [17],18000 ± 3000 µM
N=C(N)NCCC[C@H](N)C(=O)O [arginine],acceptance as amine substrate,[2],not AgmNAT substrates
B1,Km,[3],300 ± 20 µM
same,kcat,[3],18 ± 1 s⁻¹
same,kcat/Km,[3],60000 ± 5000 M⁻¹ s⁻¹
same,Km,[4],32000 ± 6000 µM
same,kcat,[4],1 ± 0.1 s⁻¹
same,kcat/Km,[4],32 ± 6 M⁻¹ s⁻¹
same,Km,[5],17000 ± 500 µM
same,kcat,[5],1.3 ± 0.009 s⁻¹
same,kcat/Km,[5],76 ± 0.5 M⁻¹ s⁻¹
B2,Km,[6],18 ± 3 µM
same,kcat,[6],0.011 ± 0.0004 s⁻¹
same,kcat/Km,[6],600 ± 100 M⁻¹ s⁻¹
same,Km,[7],6000 ± 1000 µM
same,kcat,[7],0.013 ± 0.001 s⁻¹
same,kcat/Km,[7],2.3 ± 0.3 M⁻¹ s⁻¹
B3,Km,[8],(2.3 ± 0.3) × 10^2 μM
same,kcat,[8],0.43 ± 0.03 s⁻¹
same,kcat/Km,[8],1900 ± 300 M⁻¹ s⁻¹
same,Km,[9],180 ± 20 µM
same,kcat,[9],0.36 ± 0.02 s⁻¹
same,kcat/Km,[9],1900 ± 200 M⁻¹ s⁻¹
B4,Km,[10],24 ± 1 µM
same,kcat,[10],1.84 ± 0.03 s⁻¹
same,kcat/Km,[10],75000 ± 3000 M⁻¹ s⁻¹
same,Km,[11],1000 ± 200 µM
same,kcat,[11],1.7 ± 0.1 s⁻¹
same,kcat/Km,[11],1600 ± 300 M⁻¹ s⁻¹
B5,Km,[12],(2.4 ± 0.3) × 10^2 μM
same,kcat,[12],1.3 ± 0.1 s⁻¹
same,kcat/Km,[12],5000 ± 1000 M⁻¹ s⁻¹
same,Km,[13],420 ± 40 µM
same,kcat,[13],1.2 ± 0.1 s⁻¹
same,kcat/Km,[13],2800 ± 300 M⁻¹ s⁻¹
